According to patent publication US5837813, “Fibronectin Type III polypeptides” (La Jolla Cancer Research Foundation, dated 1998):

Legend:
human fibronectin [1] = target: T1, human fibronectin (human, UniProt P02751); assay: solid-phase competition, 125I-14 kDa fragment on coated fibronectin
human fibronectin [2] = target: T1, human fibronectin; assay: solid-phase competition, 125I-fibronectin on coated fibronectin

## NAPQPSHISKYILRWRPKNSVGRWKEATIPG [polypeptide P1]
Human fibronectin [1]
  IC50: 1000 nM
Human fibronectin [2]
  IC50: ~1000 nM
